From the DeepSol protein solubility set

assay: soluble on expression in E. coli; label from the status in PepcDB or PDB records

Sequence | soluble on expression in E. coli
MGSDKIHHHHHHMKKSIVVFEVEGGSDKHFDGHRKDTMPIVNSINDAGWQAEVVYYRPEWTEGLFEYVSENFDGYISRVNPGNIPGGERGYFDLLTRLSEAGLVGMSTPEEMMAYGAKDALVKLSQTDLVPSDTEAYYDVETFHKVFPTSLSFGERVLKQNRGSTGSGIWRVQLVDKELAASIEPGTALPLDTEIKCTEAVDNHTEVRKLGEFMDFCDQYIIGDNGMLVDMRFMPRIVEGEIRILLVGPHPVFVVHKKPAEGGDNFSATLFSGAKYTYDKPEQWQELIDLFADARPVIAEKLGGDNIPLIWTADFMLGDVVDGKDTYVLGEINCSCVGFTSELDMGIQQLVASEAIKRIEEFAQLTV | not soluble
AIATDCEWFDMTWGSSASSGYCSQSDSDEHELELFYTARTSLRKSRKCRDKDEQSEVDWRKQDLSVTEIQQKVKEYNAQVNSNLFMVLNRDGSYTGFIKVQFKLARPVSLPPPRSVSSSSISSSCLGWDGGCQERTSFYLPRDTVKHLHISSSTRAREVIQALLNKFTVVDNPAKYSLYERSQRDNQVYLRKLADDECPLFLRLCAGPNEKVLSLVLKENETGEVNWDAFSFPELQNFLRILQREEEDHVRQIIRRYTLARDKMKEAMKNFSTPG | soluble
DKDNPKGLPMLSVDEPTLTMDFMVNTSPLAGTEGKFVTSRQIRDRLQKELLTNVALRVEDTADADVFRVSGRGELHLTILLENMRREGYELAVGKPRVVYRDIDGQKCEPYENLTVDVPDDNQGAVMEELGRRRGELTNMESDGNGRTRLEYHIPARGLIGFQGEFMTLTRGVGLMSHVFDDYAPVKPDMPGRHNGVLVSQEQGEAVAYALWNLEDRGRMFVSPNDKIYEGMIIGIHSRDNDLVVNPLKGKKLTNIRASGTDEAVRLTTPIKLTLEGAVEFIDDDELVEITPQSIRLRKRYLSELERRRHFKKLD | not soluble
MRGSHHHHHHGMASMTGGQQMGRDLYDDDDKDPMSVIKPDMKIKLRMEGAVNGHPFAIEGVGLGKPFEGKQSMDLKVKEGGPLPFAYDILTTVFCYGNRVFAKYPENIVDYFKQSFPEGYSWERSMNYEDGGICIATNDITLDGDCFIYEIRFDGVNFPANGPVMQKRTVKWEPSTEKLYVRDGVLKGDVNMALLLEGGGHYRCDFKTTYKAKKVVQLPDYHFVDHRIEIKSHDKDYNNVNLHEHAEAHSGLPRQAK | soluble
SARGRKMSKPRAVEAAAAAAAVAATAPGPEMVERRGPGRPRTDGENVFTGQSKIYSYMSPNKCSGMRFPLQEENSVTHHEVKCQGKPLAGIYRKREEKRNAGNAVRSAMKSEEQKIKDARKGPLVPFPNQKSEAAEPPKTPPSSCDSTNAAIAKQALKKPIKGKQAPRKKAQGKTQQNRKLTDFYPVRRSSRKSKAELQSEERKRIDELIESGKEEGMKIDLIDGKGRGVIATKQFSRGDFVVEYHGDLIEITDAKKREALYAQDPSTGCYMYYFQYLSKTYCVDATRETNRLGRLINHSKCGNCQTKLHDIDGVRHLILIASRDIAAGEELLYDYGDRSKASIEAHPWLKH | not soluble
MSLEEKPKYKRILLKLSGEAFAGEQGYGIDPAFLEYISHEIKNVYDLGVQVAIVIGGGNIFRGFQGKEIGVDRATADYMGMLATVINALALQSALENHVNIPTRVLSAIEMRQVAEPYIRRRAIRHLEKGRIVIFAGGTGNPFFSTDTAAALRAAEIGAEVLIKATKVGGIYDKDPEKYPDAVLIKEISYLEVINMGLKVMDHTALTLCKENEIPIIVLNVKEKGNLRRAVLGEEVGSVVRGEGHHHHHH | soluble
FPDILDNRIEKMSSCFKQAAEEYGYKAENFIIYPIKVNQMRPVVEEIISHGKKFNLGLEAGSKPELHAVIAVNTDSDSLIVCNGYKDESYIELALLAQKMGKRIFLVVEKMNELKLIAKMAKQLNVQPNIGIRIKLASSGSGKWEESGGDASKFGLTSSELLEALDFMESKGLKDCLKLIHFHIGSQVTKIRRIKTALREASQFYVQLHSMGFNVEFVDIGGGLGVDYDGTRSSNSEGSVNYSIQEYVNDSISTLVDVSDKNGIPHPNIITESGRALTAH | soluble
GMNKEVDLSVSCLGKVKELKYDVIILPWGATEPHNLHLPYLTDCILPHDIAVEAAELALSRSGVRCMVMPPVPFGAHNPGQRELPFCIHTRYATQQAILEDIVSSLHVQGFRKLLILSGHGGNNFKGMIRDLAFEYPDFLIAAANWFEVVSPKGYFEAEIDDHAGESETSVMMHYHPELVNLAEAGDGESKPFAIASLNEKVAWVPRHWDKATVDSGVGNPKKATAEKGERYVKPIVEKLAGLFEEMAQHDLYE | soluble
MAKLENPILMAKIGGAQGLRGEVRVSTYTDDPMALGDYGNLVTADGRVFEILEVREGKNVVVVRFRGINDRNAAESLNGLELFIERDNLPDDELDDDEFYYADLEGLEAVDAEGKSYGAVSAVYDFGAGDLLELKGAGRRPALIPFSEAAVLEIDLEAGRILIDPMAAGLIDNPDDKDQNGMSPFGKKLEHHHHHH | not soluble
MKLEGVWKVFGNVVAVRDVNLYIEDKEFVSILGPSGSGKTTLLYLIAGIYKPSRGRIYFNDVDVTDLPPNKRNIGLVFQNYALYPHMTVYENIAFPLRLRNFGEPAIKEKVLSVAKLLGIEGLLDRYPAQLSGGQQQRVALARALVKEPEVLLLDEPLSNLDALLRIKIRSELKKLQKELGITAIYVTHDQSEALAMADRIAIIASGVIQQVGKPWDVYYKPRNVFVASFIGTPPANLVSVPLDSSRRCLLLPGGGRYCPPRRIAEKLAAVKTNSVILGFRPEVAVLSESPLGDYVSMEAEVYTVETLGRENIVTLLVNGSQVKVIVPPVVEPRPGSRIFINIEEDKVMYFDPETEINVEYLEVPGMEEAIAESAGTLRKQEMEEEWD | soluble
GAGTQTAQTQALDSDGIPTGGEWITMFDGKTLNGWRGYCRQDVPLGWVVEDGSITYKGSDNKADTGFGDLIYDKKFKNFVFEIEWKIDKAGNSGIFYTAQEIEGTPIYYSSPEYQLLDNENMPDAWEGCDGNRQAGAVYDMIMPDPQPVKPYGNWNKTRIVVYNQRVIHYMNDVKILEFQFGTPVWRALVDHSKFSKFSTSPEKCPEAYDLMLQCGKQPGYIGMQDHGYGVCFRNIRIKEL | soluble
MGKVYIVGAGPGDPDLITVKGLKCIEKADVILYDRLVNKELLSYAKPEADLIYCGKLPNYHTMKQETINTFLIKYAKKGKIVTRLKGGDPFVFGRGGEEAEALAKQGVPFEIVPGISAGIAAPAYAGIPVTHRDASASFAIVTGHRKEDAAEEVKWGNLAKGVETLAVYMGVSNLPYICEQLMKHGKDKSTPAAIIERGTTSMQRTVVGTLGTIVDVAKKEQIQNPSMIVIGEVVRFREKIHWFEKQTESTYQVSGVL | not soluble
ELVMTQTPSSVSEPVGGTVTIKCQASQSISSWLSWYQQKPGQPPKLLIYDASNLASGVPSRFMGSGSGTEYTLTISGVQREDAATYYCLGGYPAASYRTAFGGGTELEIIRTVAAPSVFIFPPSDEQLKSGTASVVCLLNNFYPREAKVQWKVDNALQSGNSQESVTEQDSKDSTYSLSSTLTLSKADYEKHKVYACEVTHQGLSSPVTKSFNRGEC | soluble
MKFAVIGNPISHSLSPLMHHANFQSLNLENTYEAINVPVNQFQDIKKIISEKSIDGFNVTIPHKERIIPYLDDINEQAKSVGAVNTVLVKDGKWIGYNTDGIGYVNGLKQIYEGIEDAYILILGAGGASKGIANELYKIVRPTLTVANRTMSRFNNWSLNINKINLSHAESHLDEFDIIINTTPAGMNGNTDSVISLNRLASHTLVSDIVYNPYKTPILIEAEQRGNPIYNGLDMFVHQGAESFKIWTNLEPDIKAMKNIVIQKLKGELLEHHHHHH | soluble
MNTLIPISEQTVGQETVQTVNARDLHAFLEVKTSFKDWIIRRIQDCKFKEGYDFCSFLSESSGGRPSKEYHITLDMAKHLSMIERNDKGHEARQYFNFLFDNMSVLCLLSNQVPQKHLKYTAGRLPKQSLLRTLKALTHYMLVAYKWLVGCGYAIQYPRGESVTTDCVPCF | soluble
MSAKGKHVVVIGGGDTGADCITTSVRHGAKSITQFDINREKSNERPDNNPWPLFPIVHTVEDGHKEAAAVYGKDPRAYQVMTTKFVGDAEGHVKEIHTISVETTVHPDGSKTRVEIPGTEKVWPADLVFLAVGFTGPEEQLVRELELETDTRSNIKAEYGKYETSLEGVFAAGDNRRGQSLVVWAIHEGREAARECDKYLMGLEHHHHHH | not soluble
MALADISGYLDVLDSVRGFSYLENAREVLRSGEARCLGNPRSEPEYVKALYVIGASRIPVGDGCSHTLEELGVFDISVPGEMVFPSPLDFFERGKPTPLVRSRLQLPNGVRVWLKLEWYNPFSLSVKDRPAVEIISRLSRRVEKGSLVADATSSNFGVALSAVARLYGYRARVYLPGAAEEFGKLLPRLLGAQVIVDPEAPSTVHLLPRVMKDSKNEGFVHVNQFYNDANFEAHMRGTAREIFVQSRRGGLALRGVAGSLGTSGHMSAAAFYLQSVDPSIRAVLVQPAQGDSIPGIRRVETGMLWINMLDISYTLAEVTLEEAMEAVVEVARSDGLVIGPSGGAAVKALAKKAAEGDLEPGDYVVVVPDTGFKYLSLVQNALEGAGDSV | soluble
MAHHHHHHMDEIKWPLRLLQILRNHLEQVDHPHEPRTLPIAAKCGQGGVLAFLTDVDDDVRRRTGASECITACCRGLVLDMIEQCCTLLFLSSKERRVINMAAVQREKRVVARGVGKRRRGDQGETTEETAIGETDNSQRKCAAVLPLEYLLRLFVALPSLLAHYDKLGGSTMPAAFKQPLWNYVNAVLDIMKDMTFLDPSEYIPLR | not soluble
MGHHHHHHSHLTTKEDVFDAIVTLKVRGAPAIGITAAFGLALAAKDIETDNVTEFRRRLEDIKQYLNSSRPTAINLSWALERLSHSVENAISVNEAKTNLVHEAIQIQVEDEETCRLIGQNALQLFKKGDRIMTICNAGSIATSRYGTALAPFYLAKQKDLGLHIYACETRPVLQGSRLTAWELMQGGIDVTLITDSMAAHTMKEKQISAVIVGADRIAKNGDTANKIGTYGLAILANAFDIPFFVAAPLSTFDTKVKCGADIPIEERDPEEVRQISGVRTAPSNVPVFNPAFDITPHDLISGIITEKGIMTGNY | not soluble
DIQMTQTTSSLSASLGDRVTISCSASQDISSYLNWYQQKPEGTVKLLIYYTSSLHSGVPSAFSGSGSGTDYSLTISNLEPEDFATYYCQQYSKFPWTFGGGTKLEIKRADAAPTVSIFPPSSEQLTSGGASVVCFLNNFYPKDINVAWAIDGSAAANGVLNSWTDQDSKDSTYSMSSTLTLTADAYEAANSYTCAATHKTSTSPIVKSFNANEC | soluble
MGSDKIHHHHHHMINHHPKFELIQAFVNGDLPASLSAGIAIHADMCPVCQQTIAQFTEQVAENSFEEEYLDRFIIDDNEALEAIATIDFDHMIDNIVESSDIAVVVPKVEKTVSFNDTTYTLPAALNSMEMGKHAQIGKLTRARIQLNENEIHSSLLHIQPGGGVPEHTHKGFELTVLLAGSFHDESGEYVKGDFIMLDSSHQHHPISSNGCLCYTVANDALHFTHGINKLLNPIGSFIY | not soluble
MIFAYNKEHVGDVLLVIVADDQGAENQVKRVGDVARVSLVEAPETVVAWNIFNASALLGDINGTGQVTLTDEQIEKVNTAIKDAGFSETLEKDDTPKIVVGFVKSCKKHPDSDHLSITQTEVDNGEILQIVCGAPNIKAGQKVVVAKPGAMMPDGLMIWPGVLRGEESFGMICSAKELRLPNAPAKKGILELPFDAEVGSAFAVGE | not soluble
MSTEPQFENPFIDRQLDGSKIHEISGHRFKATALVQPTCCAICSKLIYGLGKQGYRCLGCETVVHKRCHSLINDRCNFGPSSPRQPPPQELSSDSGELRHRIPSPTEPQVSTNHHFNKHFYTRPTFCDHCGSLLYGLSKQGVQCSDCLANVHHRCKEKAVHNCIVSSQ | not soluble
